In article PMC2871789:

Key:
Assay in all cases: EMSA
[1] = molecular target: T1, RelB (Mycobacterium tuberculosis H37Rv) (UniProt O50462)
T1 sequence: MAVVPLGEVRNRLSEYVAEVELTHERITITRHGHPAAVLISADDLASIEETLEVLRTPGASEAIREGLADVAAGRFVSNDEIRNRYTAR

[2] = molecular target: T2, RelB;RelG (Mycobacterium tuberculosis H37Rv;Mycobacterium tuberculosis H37Rv) (UniProt O50462+O33348)
T2 sequence 1: T1 sequence
T2 sequence 2: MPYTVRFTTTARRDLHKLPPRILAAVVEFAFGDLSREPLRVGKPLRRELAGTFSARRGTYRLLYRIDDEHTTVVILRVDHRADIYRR

[3] = molecular target: RelB;RelK (Mycobacterium tuberculosis H37Rv;Mycobacterium tuberculosis H37Rv) (UniProt O50462+P9WF09)
[4] = molecular target: T3, RelE (Mycobacterium tuberculosis H37Rv) (UniProt O50461)
T3 sequence: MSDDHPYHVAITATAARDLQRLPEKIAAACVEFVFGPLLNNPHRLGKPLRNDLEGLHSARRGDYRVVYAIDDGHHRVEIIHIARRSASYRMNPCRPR

[5] = molecular target: T4, RelB;RelE (Mycobacterium tuberculosis H37Rv;Mycobacterium tuberculosis H37Rv) (UniProt O50462+O50461)
T4 sequence 1: T1 sequence
T4 sequence 2: T3 sequence

[6] = molecular target: RelK (Mycobacterium tuberculosis H37Rv) (UniProt P9WF09)
[7] = molecular target: T5, RelF;RelE (Mycobacterium tuberculosis H37Rv;Mycobacterium tuberculosis H37Rv) (UniProt O33347+O50461)
T5 sequence 1: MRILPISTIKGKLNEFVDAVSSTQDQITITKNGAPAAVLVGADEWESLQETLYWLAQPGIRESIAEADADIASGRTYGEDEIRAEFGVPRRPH
T5 sequence 2: T3 sequence

[8] = molecular target: T6, RelF;RelG (Mycobacterium tuberculosis H37Rv;Mycobacterium tuberculosis H37Rv) (UniProt O33347+O33348)
T6 sequence 1: T5 sequence 1
T6 sequence 2: T2 sequence 2

RelB;RelK (Mycobacterium tuberculosis H37Rv;Mycobacterium tuberculosis H37Rv), sequence (P9WF09 whole entry, one chain of several): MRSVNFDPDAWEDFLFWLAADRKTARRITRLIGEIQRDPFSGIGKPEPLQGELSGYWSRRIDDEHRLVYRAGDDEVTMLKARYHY
RelK (Mycobacterium tuberculosis H37Rv), sequence (P9WF09 whole entry): as the sequence (P9WF09 whole entry, one chain of several) above

## ACCGTCTAGATGACAAGTTGGCCGGGATCAAGCGAATCTCGCGCCGGGCGATGTCAGCCCCGTCGTCAGGCTCGTCGAAGGTGCACGCCGTCGAACAGCAGGAGATCCTCGACGAGGCGTTCGGCTGAGTTCGCTCAGCCGAACGCTCGAGGAGACATCAAACAGCGACGAGGCGTTCGGCTCGGTAAGCCGATGCTCGGCGTACAGGGTTTAGCCATACTTTTAGCTACAATCGCGGTTATGGCTGTTGTCCCACTGGGTATA (double strand) [1247p]
[1]
  binding: no binding
[2]
  binding: binds
[3]
  binding: binds
[4]
  binding: no binding
[5]
  binding: binds
[6]
  binding: no binding

## ATCTTCTAGAACACACCGAGACCGAACCGTTACGCCGAGACTAGGTCGCGAATGGAACACCACCGCGAAAATCGTGGCCAGAAATCGCAACCACGTTACGCTCGCGACCGCTCAATCGAGCAAGGCGCCGACCGCAAGCACCAGCAAACCTGAGACGCCGCGCACAAAGTGCGAAACCACTGGAAGGTGAGCCCTAATTTAGGGCTGAGCAGGACCTGTATAACGGCCTAGTATGGCGGTATGCGGATACTGCCGATTTCTATA (double strand) [2865p]
[7]
  binding: binds
[8]
  binding: binds

## GGCGTTCGGCTCGGTAAGCCGATGCTCGGCGTACAGGGTTTAGCCATACTTTTAGCTACAATCGCGGTTATGGCTGTTGTCCCACTGGGTATA (double strand) [1247p3]
[5]
  binding: binds

## TCCGAACGCCTCGTCGCTGTTTGATGTCTCCTCGAGCGTTCGGCTGAGCGAACTCAGCCGAACGCCTCGTCGAGGATCTCCTGCTGTTCGACGGCGTGCACCTTCGACGAGCCTGACGACGGGGCTGACATCGCCCGGCGCGAGATTCGCTTGATCCCGGCCAACTTGTCATCTAGACGGT (double strand) [1247p5]
[5]
  binding: no binding
